{"source": "patent US20040214258A1", "target": "hR.Luc-connector-DhaA.H272F-Flag fusion protein with covalently bound biotin-C18H32O4-Cl substrate (Rhodococcus rhodochrous) (UniProt P0A3G2)", "assay": "capture on SA-coated 96-well plate through tethered biotin; captured luciferase activity measured", "data": [{"substance": "streptavidin (SA) coated on a solid support (from UniProt P22629 37-163)", "values": [{"measurement": "efficiency of capturing (% of Renilla luciferase activity added to the plate)", "value": "> 50", "unit": "%"}]}]}
